# Assay results as given in the DeepSol protein solubility set.
# Experiment: soluble on expression in E. coli; label from the status in PepcDB or PDB records
row,Sequence,soluble on expression in E. coli
1,MGSDKIHHHHHHMMLTTKLIYCCLVSIVLHPINNLNPKPYISLFNLQGILLPTQFSHSLTSLDAFAPRLLAWFEINGRHDLPWQQHQTDTPNPYIVWLSEVMLQQTQVTTVLPYFARFMASFPTVQDLAAAEWDTVAEHWAGLGYYARARNLHKGAKQLVEVIDETGEYPTTLAGWEAISGVGPSTAGAIMAMGLHRYGVICDGNVKRVLTRWAAIDGDITKSATTKELWALAERLTPKENSGLFAQAMMDMGATLCTRSKPACLLCPLQDDCLAHAQGRETDYPVKAKKQPKPSKFSNALLIENENGEILWLQRPDNGIWGGLWSLPLAFIEKISGKVAVKDADKNKNKELIAANDNQLLEVASNEKVYETEFTTAEQIINEWINKNELVAKSVNDTLLDDSPIKHSLTHFHWYLTPQTVNLNTKQAQEITEALQAGEININWLNADDAQATLGLPKAMVKILE,not soluble
2,MGSDKIHHHHHHMMNVLRDGCSERGTARVGKHHDLKTVRWYVLTLPTTGVARRDKISPAKSLDAELSRRKRRGETLFEYFAPSYVEVRKVDGKMVNTKRPLLFNYVFIRSSVEEIFQMKRTLPLYNFLPRVSSGGMTHFPYLSDSEMGNLRWVAESYSNELPVYVPDSNRLLKGDRVRITSGYFTGMEAEVVIQPGGGHKDVMARILDCMWVPLLEVKPGEYELIELNTKGKHAYTHLDNDRLREGLHDALGRYHTSGSVAEEDTRLACEVLRSYGSLRAETDVMRCKIYSLLLSAYKLLGDEEEFTRLHDTMRGMLPVVKAPQSRALLLVTLYGCTDSALYRQMAHEVVDPWRGESSPKKSKLSLIRRLDDCDRWLRHNE,not soluble
3,MGSDKIHHHHHHMMRVFHLVLAPRLSGAEVLAKDLALDQCAEGMAVCVASLLPAHAEFAPLQDDLQRHGVQCVFPRRRHRALVKLCHLFGAVRRFRPDVIFAHATIPSFYARALPLRVPVVYVMHSATNDFERPLFRRIEHILSGRARVVIGVSEQGVTDYVQAIGPHPSMTVVPNGVDLARFSFTDGVERDGRTPQVVQIGRYAAVKNQLATVRAFSEVLMKGKDARLVLYGVVEDPDYQRAVVALAKELGIAERVVVAGPRTDVATVLSESNVFVMPSQSEAHSVAFLEALASGVPIVASKIPAFAFANGFPGVQLIDTDNVQCYAEAVIAALGQERAQRSLTGLTLRDTADRYRAIARQVSLAVPAR,not soluble
4,MGSDKIHHHHHHMMTAHAIGTREEWLAARLDLLEAEKNLTRRSDELAKWRRELPWVRIDKAYRFETDEGEASLRDLFKGRSQLLVYHFMFGPDYTAGCPSCSAIADGFNGIVAHLENHDVAFSAVSRAPLAKLTAYKRRLGWSFPWASSDDGAFNRDFCVWFTEQQQREGGIEYNFRREPPIPEQPASEPLAGRTVREWDASGSEGPVAQIAAMTGTDVATYTRDRPGVSAFALEDGIVYHTYSSYARGLDGLWGMYQWLDRTPKGRNENGIWWRRHDEYAQG,not soluble
5,MGSDKIHHHHHHMMTMRIAMISIHTSPLQQPGSGDAGGMNVYIISIARELARRGVDVDIYTRATRPSQGDVVEVESGLRVINIVAGPYEGLSKEELPTQLAAFAGGVVQFAKCHHMRYDVIHSHYWLSGQVGWLLRDLWNIPLVHTAHTLAAVKNAHRSAGDTEESEARRICEQQLVDNADILVVNTPEETNDLVRHYDANPDSVAVIAPGANVELFTPGTQRNTEQSRRCLGIPLHTKVMAFVGRLQQFKGPEVLLRAVAEMLERDPDRDMRVIMCGGPSGAAATVEHYIELTRSLGIAHRVRFLDPRPPEELVSVYQAADVVAVPSYNESFGLVAMEAQASGTPVVAARVGGLPIAVVDGETGVLVDGHDPIMWADALEQLLDDDPTRQQMGVAAVEHAANFTWAAAAEKLESVYGDAAMLDVAQCHDRYAAGSDRA,not soluble
6,MGSDKIHHHHHHMMVLEQPLKSFFTSLSQSKSMNKLAKKWGLKLGASQVVAGVTISEAIEKVKELNEKGLSATLDHLGEFVEERTEAIEATDHCIQTLEQIASSGVNCNLSLKLTQLGLDIDQSFCLENMERIIKKAAELGIFVRIDMEDYGHCQQTLDILAELRKTYDNVGTVIQAYLFRALDDVRALEGIPLRLVKGAYKESPEVAYQEKEKIDENYFNMIKLHLDSGTYTAIASHDHQIIDRVKAYVKEKGISHSQFEFQMLYGFRTNLQEELVKEGYNVRIYVPFGIDWFGYFMRRLAERPQNVAFALRGFFSK,not soluble
7,MGSDKIHHHHHHMNAHTNSQANTNVTNVVFRTHTQPDEAASKKAGRPIFTDIEVCDITFPANRQTRATFPAHDAEPNATRESMANGGGVMTYAQVYNAQYLAYKSGVAQPMGGTPLSEAPFLTESKRRELKALNVHTVEALASLDGMPLKQLGMGGRELKNQAVAYIDNAAGSADVTNLAAQVAILTQQLAEERRMREEFTNAALARRERIKAGEEIEDDEQPEDDEPAELEPEPDDFEPVLPPTFAEIDAMDDEALKVYIAKETGSRPRGNPNRDTLVAAAKELAS,not soluble
8,MGSDKIHHHHHHMNAPANFDSLEVGFDVPALPGMDEADIQTPCLVLDLDALERNIKKMGDYARAHGMRHRVHGKMHKSVDVAKLQERLGGAIGVCCQKVSEAEVFARGGIKDVLVSNQVRDPAKIDRLARLPKLGARTIVCVDDPANVADLSAAAQKHDTEIECFVEIDCGAGRCGVTTTEDVVEIAQAIDAAPGLKFTGIQAYQGAMQHLDSYEARKEKLDVAIAQVRDAVEGLKAADLAPELVSGGGTGSYYFESNSGVYNELQCGSYAFMDADYGRILDQDGKRIDQGEWENAFFILTQVMSHAKADKAICDAGLKAQSVDSGLPFIFGRTDVEYVKCSDEHGVIADPDGVLKVGEKLKLVPGHCDPTANVHDWYVGVRNGKVETLWPVSARGKAY,not soluble
9,MGSDKIHHHHHHMNDFIKFTGPADVLAFIPHTLGQTPTESFVALTMQGNKIGATLRVDAPFGQDPVGYAQTIVSYLTADEAATGSLLVIYTDESTTDGSSPYAGHVQALSTELETAGMPLQDAWLVTSELWRNYHCTDTGCCPDQPLDAITTSNGNAALIYRGSAVTGFIAPAPFTGDETAREAITARKPDGWPEDLEASRAAWARVLKDPKSLTTETAYQLAGALQHPTIRDYMMGDIVPHAPEQFTSVMLGVFPTRPDWARVDTAQEVAFELMKATPEGQRAPMLCLIGWLEWLKGQSSFAARYFKLALEDTAGYRLAELLDELVNRGLLADCSRDRKKAYDRRLKR,not soluble
10,MGSDKIHHHHHHMNDKEFGQRVRQLRESASMTREQFCDDELELSVRQLTRIEAGASKPTFSKIQYIATRLGMGLYELMPDYVSLPERYSKLKFDVLRTPTYGNEDLAEKRDAMMTEIYDDYYDELPEEEKIVVDTLCSLFDVLDTDSQEYGKEILDDYLHQSYHRSKLSINDLMILRLFIEHCQLEDLSVGTSNYALFTDLIEKLPQSIYDVHSESLFIVRDLFLAIVRILFSKELYNHIPVYIEKIENIMELSQDFQKKPILNLVKWKYELKVQHNHEIAERYYNEAITFASLLNQFHLKEKLQMEWEKDTQSLKR,not soluble
11,MGSDKIHHHHHHMNDLKRLPYEPVKGLLPRPAVGTSERVITLPEPDRTSGMPLMGTLWLRKSTREFDQQPLPLKQLSELLWAAAGVNRSLGGGRTAPSPYGETVIDVYVALPAGLYRYDPVHHCLELKRAADLRSMTGYQDFVGMAPLDLVFVANHGRMQEMPPKLRETFSAAAAGAMAENAYLYCASAGLGAVVRGWLNRRQLAEHMSLNEDEEPILSQTIGRAASHVTTTQA,not soluble
12,MGSDKIHHHHHHMNFKEALEGIKLVLESKAVPLLVGESGIGKTSLVKKLSKDEEYYYINIDGNLLKEGEIGGLPVVQDYGDEKSLIKKTVYAAYYKFIKIDEILKNNPNQKVLLFIDEINRCEHSVQQEIMNIILNREINGYKLKDNITVIAAMNPSSKYDEFEESDYQVNDMDPAQEDRFVWIYLESDVNNWIEWGHERINGESRIHEDILGFIASFPEYLSTPNSKESIKATPRSWERVSNIYKAYIKKKTKVSRNIFYNLIRGNVGTSIAQDFINYIDESKSPLLTPEDIFANDCISEDIKDRIRKESHSRLFLSAKNILFYLENKEDRSREVEIFSEFLSLYPNDLKLGIMQNIKSDSSKKLYKEFLENTSFLENFFLMYEGIED,not soluble
13,MGSDKIHHHHHHMNGGKPGVERDRREALLALAAALRPELHRYCARLMGSVIDGEDVVQDTFARAFVALDELCAVPQLRPWLFRIAHNRALDLLRSRATRVAEPIEAALEIVDDSKADAVETLMRKEAIETAVSRFAELPVVQRSVIILKDVLDEPLAEIAALLGISVDAVKAHLSRGRARLREINARTDPFPDARIASANVVRYINLFNQRDWDGLRALLAEDVRLQQSMHPPRSGAADVGMFFTIYAKSEGLWLKPAWVEGREVIAVFEHRAAPKPTHFMWLEWREGRISFIRDYRYVGYVADDARLVLASDVRSSGHGTKL,not soluble
14,MGSDKIHHHHHHMNGLDVLLSNNQNHHFYGVTIGVVTNNKDPKKLGRVKVKFPWLSSEEESYWARVVTLMAGNDRGIYFLPEVDDEVLVAFEQGDMNFPYILGALWNGKDKPPITNEDGKNNQRVIKSRSGHMIVLDDTEENEQIIIQDKTGKNKIVINSKENKMNIQVEKDLTIETKGKIILKSSDDDISIDCKNLQIKTQQNYQLEVGANCTIKAKSKYKLEAQSGLGIKCAAGVKINDGSLEVM,not soluble
15,MGSDKIHHHHHHMNILITGASGFIGRQLVERLAPHHQLTLLTRSVQQTQRILGNQHHYLESLDALSDLNHIDAIVNLAGEPIVAKRWSKNQKQRICDSRWDITARLTQLIQQSSNPPEIMVSGSAVGYYGRHDDKLLDESSGAHVEFSHDICRKWEQEALNANTEHTRVCIIRIGIVLGKGGALEKMLPPFKLGLGGPIGHGRQGMSWIHVQDLISLIDFLLSQEHCKGVFNATAPNPVSNAVFTKALGKALNRPALITTPPLALRLAMGEMSELLTEGQFVYPKRALEAGFQFQFSDLDNALTDVLAK,not soluble
16,MGSDKIHHHHHHMNKHFTFTINSICLDENYHPSDKTRITTNFANLARGSHRQANLRNALKMIDNSFNALAHWDNPKGDRYSVELEIISVNLDIDGSGQTFPSIEVLKTNIVDHKTNKRIEGIVGNNFSSYVRDYDFSVLLAEHNKGQAKFSIPDDFGGLHGKLFQSFVNSDAYKQNFNKPPVICLSVSDNKTYHRIENQHPVLGVEYQPNESSLTEQYFKKMGLQVRYFMPPNSVAPLAFYFFGDLLNDYTHLELISTISTMGTFQKIYRPEIYNANAVAGKCYQPNLKNLDHSLTQIVYDRAERSQLANEQGKFAAEHFIKPYQTFFEQWPANYL,not soluble
17,MGSDKIHHHHHHMNKIINNILNTCKQYTYILPHKLLRQYIAHYTISIPDTSIKENLTLIPDASGCMIFKFDKKGIESAFWGATTKTTIVKNDIENVLFRVFVEFRPGGVYYLTGLSQRESTDLKISLEDFNTLFSLEVNSIFERTSTIKELVEQLDMLFLSYLLKSNIVDMTIPILENARKQNSIMSVKNISQISCYSERHLNRIFNNSLGMSVKSYLRLLRINLVLQEIQNNKIPFATLAQDIGYYDQSHFINDFKSICGVNPTTYIKNLSDFYNEKYKF,not soluble
18,MGSDKIHHHHHHMNKQEITSKIKEITETGAVCGVDVYVCLKGEEQGFYIEKMISMNSLKDRIRSIALEIINTQYLQDEVVYCDILDVIDNKKAVYVLEQSDEYKPFALLNDDSMDEVFNFDEKDIGNVLGFLFKINLNSKKLFIYQQAYVGSRLQAKNNLRIIQKDNVFEIVDKEMLKIDKRGELLILDNTILVRNVKVLQDFFGFQVFVRNQAQSVISKLEELDIIGNIATLKEYQTGEKLTISKKLMKVKNSPVLAMDKDELINKIPLVPRYKNIIHIENGKIRTNTKKDVDNLMKLLNDDYVKSELTDMEYDSTSKTLLNSESQDE,not soluble
